We go through 2 molecules from patent publication US20110262445A1 (CEPHALON AUSTRALIA, published 2011).

Test [1] concerns the target T1, human IL-12 (human, UniProt P29460 23-328; P29459 23-219).
T1 construct: Recombinant (Peprotech); FLAG-tagged IL-12 in the flow cytometry assays, biotinylated in the IL-12Rβ2 assay; also called hIL-12
T1 sequence 1: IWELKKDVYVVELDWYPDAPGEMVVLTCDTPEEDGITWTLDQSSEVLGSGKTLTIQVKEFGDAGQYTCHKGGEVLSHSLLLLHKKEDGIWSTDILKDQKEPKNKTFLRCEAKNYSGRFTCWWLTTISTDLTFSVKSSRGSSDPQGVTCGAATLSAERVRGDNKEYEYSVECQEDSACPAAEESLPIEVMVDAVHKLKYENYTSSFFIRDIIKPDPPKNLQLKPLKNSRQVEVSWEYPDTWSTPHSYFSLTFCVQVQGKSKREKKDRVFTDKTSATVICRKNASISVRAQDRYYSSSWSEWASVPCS
T1 sequence 2: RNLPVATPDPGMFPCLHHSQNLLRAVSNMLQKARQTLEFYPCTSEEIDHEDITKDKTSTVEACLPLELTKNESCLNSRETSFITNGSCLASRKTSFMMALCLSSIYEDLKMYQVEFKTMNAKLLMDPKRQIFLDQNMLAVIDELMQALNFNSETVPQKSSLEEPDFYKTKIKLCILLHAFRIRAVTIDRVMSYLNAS
The test is described as follows: SPR, purified scFv. In general terms: Surface plasmon resonance follows binding to a sensor surface in real time, without labels.

Test [2] deals with T1, human IL-12. The experiment in a line: SPR, purified scFv captured via FLAG. As to the method:
(§1) A number of the scFv variants presented in TABLE 4 were selected for full characterization of binding kinetics, encompassing a broad range of mutation profiles and binding affinities. Large-scale protein expressions were carried out for each scFv. The expressed scFvs were purified as monomeric proteins and tested for binding against IL-12 and IL-23 by SPR (TABLE 5).
(§2) Purified scFvs were subjected to full kinetic characterization using a BIAcore T100 biosensor (GE Healthcare). Approximately 10,000 RU of the proprietry FLAG-specific capture molecule was immobilized on a CM5 Series S Sensor chip, using standard amine coupling chemistry in flow cells (FC) 1 and FC2 (or alternatively FC3 and FC4) of the BIAcore T100 Biosensor. The running buffer used was HBS-EP+ (BIAcore) and interactions measured at 30° C. or 35° C. to promote differentiation of scFvs with very similiar kd values. Peak purified FLAG-tagged scFvs (prepared as described in the previous paragraph) were diluted to 10 nM in running buffer, and captured on FC2 at a flow rate of 10 μl/min in order to capture 50 RU of scFv (typically 60 sec was sufficient to capture this level of tagged scFv). After an appropriate stabilization period, the target, IL-12 or IL-23, were passed over FC1 and FC2 at a flow rate of 60 μl/min at concentrations ranging from 81 nM to 0.13 nM (using a five-fold dilution of IL-12) and 81 nM to 1 nM (using a three-fold dilution of IL-23). The contact time for association was 180 sec and dissociation measured for 10 mins for the highest concentration and 300 sec for all other concentrations in the series. The sensorgram data from FC2 was subtracted from FC1 and a buffer only control. The curves were fitted using a 1:1 Langmuir equation to generate the kₐ, kd and KD values.

Test [3] has as its target T2, human IL-23 (human, UniProt P29460 23-328; Q9NPF7 20-189).
T2 construct: Recombinant (Ebioscience); HIS-tagged in flow cytometry, biotinylated in some assays; also called hIL-23; rhIL-23
T2 sequence 1: T1 sequence 1
T2 sequence 2: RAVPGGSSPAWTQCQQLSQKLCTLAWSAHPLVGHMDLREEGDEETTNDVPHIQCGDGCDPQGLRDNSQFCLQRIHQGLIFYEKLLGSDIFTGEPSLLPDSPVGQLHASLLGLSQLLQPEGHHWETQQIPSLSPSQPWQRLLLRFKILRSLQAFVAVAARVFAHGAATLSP
The test is described as follows: SPR, purified scFv captured via FLAG. The protocol:
as §1, §2

In test [4] the target is T2, human IL-23. The experiment in a line: SPR screen, crude scFv captured via FLAG. As to the method: Approximately 6500 individual scFvs recovered from the ribosome display reactions were expressed and screened for binding against IL-23 using a high-throughout SPR assay. The variants were ranked according to the kd and the best variants were sequenced at the nucleic acid level.
High-throughput SPR screening was conducted using a BIAcore A100 biosensor (GE Healthcare). Approximately 10 000 RU of the proprietary FLAG-specific capture molecule was immobilized on a CM5 Series S Sensor chip, using standard amine coupling chemistry on Spots 1 & 5 (outer spots) and 3,000RU to Spots 2 & 4 (inner spots) in each of the four flow cells of the BIAcore A100 Biosensor. The running buffer used was HBS-EP+ (BIAcore) and all interactions measured at 25° C. Crude periplasmic preparations of FLAG-tagged scFvs (prepared as described in the previous paragraph), were diluted two-fold in running buffer before capturing at a flow rate of 5u1/min for 60 sec. Approx. 100RU (on outer spots) and 50RU (on inner spots) of tagged scFv was captured. Following a 2 min stabilization period, IL-23 was passed over all spots of all four flow cells simultaneously at a flow rate of 30u1/min for 120 sec and dissociation monitored for 200 sec. Generated sensorgrams were referenced against the unmodified spot 3 of each flow cell, and fitted using a 1:1 Langmuir equation with R1 set to local to account for varying ligand densities to generate the kₐ, kd and KD values.

Test [5] addresses T2, human IL-23. The test is described as follows: SPR, purified scFv captured via FLAG; LOD estimated 1 × 10^-5 s^-1. As to the method: as §1, §2
In test [6] the target is T1, human IL-12. The test is described as follows: ELISA, SPR. Background: In an ELISA, binding on a coated surface is turned into a signal by an enzyme label.
In test [7] the target is T2, human IL-23. The test is described as follows: ELISA, SPR.

B1: scFv AW-F2 (scFv)
scFv: QVQLVQSGAEVKKPGASVKVSCKASGYTFTDYYLHWVRQAPGQGLEWMGWIDPENGDTESAPKFQGRVTMTTDTSTSTAYMELRSLRSDDTAVYYCNANKELRYFDVWGQGTMVTVSSGGGGSGGGGSGGGGSEIVMTQSPATLSVSPGERATLSCRASQSISINLHWYQQKPGQAPRLLIYFASQSISGIPARFSGSGSGTEFTLTISSLQSEDFAVYYCQQSNSFPLTFGGGTKVEIKR
notes: scFv-80 variant: VH Y59S; not shown: proprietary C-terminal FLAG tag
A word on the Kd: it is the constant that tells how readily two partners part at equilibrium. A high value points to lower affinity. Broadly, the koff is the first-order rate constant of dissociation. One may read the kon as the rate constant with which the complex forms. On to B1, for which the “fold affinity improvement compared to parental scFv-80” value in test [1] was found to be 5 fold. The molecule further showed a dissociation constant Kd in test [2] of 0.046 nM. The koff is 0.0001 s⁻¹ in test [2], 0.00025 s⁻¹ in test [4] and under 1e-05 s⁻¹ in test [5]. Also, the kon in test [2] came out at 2.2e+06 M⁻¹ s⁻¹; in test [3], 350000 M⁻¹ s⁻¹.

B2: Antibody 50 (antibody, human IgG1, kappa, V domains shown)
VH: EVQLQQSGADLVRSGASIKLSCTASGFNIKDYYLHWVKQRPEQGLEWIGWIDPENGDTEYAPKFQGKATMTADTSSNTAYLQLSSLTSEDTAVYYCNANKELRYFDVWGAGTTVTVSS
VL: DIVLTQSPATLSVTPGDSVSLSCRASQSISINLHWYQQKSHESPRLLIKFASQSISGIPSRFSGYGSGTDFTLSINSVETEDFGRYFCQQSNSFPLTFGAGTKLELKR
notes: Optimized chimeric antibody (W94F, M34L, C95N)
Consider B2, for which the binding result in test [6] and in test [7] was “binds” each time.
